We go through one molecule from US20240417458A1 (DISC MEDICINE, published 2024).

The target in assay [1] is T1, soluble human RGMa (human, UniProt Q96B86 48-422, limits assumed).
T1 construct: Soluble antigen in BIAcore; also called huRGMa; repulsive guidance molecule A
T1 sequence (looked up): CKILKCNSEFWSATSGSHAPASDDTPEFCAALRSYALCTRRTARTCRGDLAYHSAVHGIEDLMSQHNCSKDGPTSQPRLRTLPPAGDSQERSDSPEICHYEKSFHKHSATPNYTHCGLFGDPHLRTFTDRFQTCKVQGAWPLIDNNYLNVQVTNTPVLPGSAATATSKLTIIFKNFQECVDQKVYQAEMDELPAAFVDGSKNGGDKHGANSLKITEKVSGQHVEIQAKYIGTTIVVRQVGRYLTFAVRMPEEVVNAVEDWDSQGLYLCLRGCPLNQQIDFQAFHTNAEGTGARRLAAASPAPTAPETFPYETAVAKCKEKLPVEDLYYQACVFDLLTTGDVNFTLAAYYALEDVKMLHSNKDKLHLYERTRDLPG
Kind of assay: SPR; method not named in Example 2.

Assay [2] has as its target T2, soluble human RGMc (human, UniProt Q6ZVN8 36-400).
T2 construct: also called huRGMc; soluble hRGMc
T2 sequence: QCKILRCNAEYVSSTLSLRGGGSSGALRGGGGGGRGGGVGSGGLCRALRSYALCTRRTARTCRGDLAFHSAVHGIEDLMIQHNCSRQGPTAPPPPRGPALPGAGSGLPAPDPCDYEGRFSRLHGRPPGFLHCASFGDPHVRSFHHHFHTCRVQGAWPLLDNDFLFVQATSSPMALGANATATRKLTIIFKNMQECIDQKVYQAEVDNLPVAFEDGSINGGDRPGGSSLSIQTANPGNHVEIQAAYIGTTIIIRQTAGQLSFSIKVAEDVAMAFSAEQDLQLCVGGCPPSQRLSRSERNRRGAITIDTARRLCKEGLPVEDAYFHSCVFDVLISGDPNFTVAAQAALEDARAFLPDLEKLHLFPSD
Kind of assay: SPR; method not named in Example 2.

The target in assay [3] is T1, soluble human RGMa. Kind of assay: SPR (BIAcore), RGM antigen in solution.
For the next assay, the target named is T3, Human RGMb (human, UniProt Q6NW40 46-413, limits assumed).
T3 construct: also called repulsive guidance molecule B
T3 sequence (looked up): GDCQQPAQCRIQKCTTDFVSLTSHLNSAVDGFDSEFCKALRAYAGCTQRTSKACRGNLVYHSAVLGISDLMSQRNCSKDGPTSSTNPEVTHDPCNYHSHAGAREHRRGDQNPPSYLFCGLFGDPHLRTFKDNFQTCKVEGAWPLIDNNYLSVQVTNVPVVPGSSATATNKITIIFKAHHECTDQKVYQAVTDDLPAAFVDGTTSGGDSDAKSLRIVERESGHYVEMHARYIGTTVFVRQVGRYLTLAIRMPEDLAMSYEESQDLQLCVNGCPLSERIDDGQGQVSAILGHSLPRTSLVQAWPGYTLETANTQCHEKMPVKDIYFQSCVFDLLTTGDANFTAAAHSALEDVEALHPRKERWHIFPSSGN
The assay can be described thus: SPR (BIAcore), RGM antigen in solution.

In another assay the target is T4, Cyno RGMc (cyno, UniProt A0A2K5TJX5 36-401).
T4 sequence: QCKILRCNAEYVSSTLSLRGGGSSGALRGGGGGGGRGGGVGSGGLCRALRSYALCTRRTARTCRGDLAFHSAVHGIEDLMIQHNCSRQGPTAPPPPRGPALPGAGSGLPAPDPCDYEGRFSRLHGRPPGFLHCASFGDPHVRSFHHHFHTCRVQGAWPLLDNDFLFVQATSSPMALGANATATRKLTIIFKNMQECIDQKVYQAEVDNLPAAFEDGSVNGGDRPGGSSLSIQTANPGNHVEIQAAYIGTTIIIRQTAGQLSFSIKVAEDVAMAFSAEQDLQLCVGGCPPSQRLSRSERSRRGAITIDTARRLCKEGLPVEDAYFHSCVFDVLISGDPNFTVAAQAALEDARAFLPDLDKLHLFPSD
Kind of assay: SPR (BIAcore), RGM antigen in solution.

Assay [4] has as its target T2, soluble human RGMc. The assay can be described thus: SPR (BIAcore), RGM antigen in solution.
Assay [5] deals with T5, membrane-bound human RGMc (human, UniProt Q6ZVN8 36-400).
T5 sequence: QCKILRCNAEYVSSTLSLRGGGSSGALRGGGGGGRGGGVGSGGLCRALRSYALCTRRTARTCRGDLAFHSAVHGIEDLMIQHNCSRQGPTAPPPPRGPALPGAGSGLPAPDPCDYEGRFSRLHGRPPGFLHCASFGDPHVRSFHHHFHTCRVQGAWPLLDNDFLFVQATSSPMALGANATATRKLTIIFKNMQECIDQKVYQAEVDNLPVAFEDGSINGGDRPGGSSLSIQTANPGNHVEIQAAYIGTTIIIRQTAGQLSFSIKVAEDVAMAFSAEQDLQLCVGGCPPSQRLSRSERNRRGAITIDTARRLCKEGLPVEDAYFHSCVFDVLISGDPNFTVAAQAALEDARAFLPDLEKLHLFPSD
Kind of assay: cell-based or functional assay.

B1: hHA-008 (antibody, human IgG1, kappa, L234A L235A)
heavy: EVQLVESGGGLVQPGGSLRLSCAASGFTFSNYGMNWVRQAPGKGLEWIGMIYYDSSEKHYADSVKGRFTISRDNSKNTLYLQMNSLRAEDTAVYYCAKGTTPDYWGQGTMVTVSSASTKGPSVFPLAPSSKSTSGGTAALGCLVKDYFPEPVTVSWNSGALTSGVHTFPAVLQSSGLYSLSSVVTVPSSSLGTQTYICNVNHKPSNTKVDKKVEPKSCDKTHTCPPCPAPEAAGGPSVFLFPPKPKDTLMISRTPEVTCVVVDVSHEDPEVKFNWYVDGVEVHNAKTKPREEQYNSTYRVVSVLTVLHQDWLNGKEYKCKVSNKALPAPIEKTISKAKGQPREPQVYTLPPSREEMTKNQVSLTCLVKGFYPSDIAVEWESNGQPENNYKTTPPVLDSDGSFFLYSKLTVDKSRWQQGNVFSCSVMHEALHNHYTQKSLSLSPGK
light: DVVLTQSPLSLPVTLGQPASISCRSSQSLEESDGYTFLHWFQQRPGQSPRLLIYEVSTRFSGVPDRFSGSGSGTDFTLKISRVEAEDVGVYYCFQATHDPLTFGQGTKLEIKRTVAAPSVFIFPPSDEQLKSGTASVVCLLNNFYPREAKVQWKVDNALQSGNSQESVTEQDSKDSTYSLSSTLTLSKADYEKHKVYACEVTHQGLSSPVTKSFNRGEC
notes: hIgG1 L234A, L235A, kappa; also called hHA-008 (hIgG1mut(LALA)/k)
Regarding B1, the dissociation constant (Kd) in the assay with soluble human RGMa [1] worked out at 78 pM; in the assay with soluble human RGMc [2] it was 110 pM; with soluble human RGMa [3], 74 pM; with Cyno RGMc, 120 pM; with soluble human RGMc [4], 120 pM. Besides, the koff is 4.2e-05 s⁻¹ in the assay with soluble human RGMa [1]; 0.00032 s⁻¹ in the assay with soluble human RGMc [2]; 3.6e-05 s⁻¹ in the assay with soluble human RGMa [3]; 0.00031 s⁻¹ with Cyno RGMc; 0.00029 s⁻¹ in the assay with soluble human RGMc [4]. In addition, the kon with soluble human RGMa [1] turned out to be 540000 M⁻¹ s⁻¹; in the assay with soluble human RGMc [2], 3e+06 M⁻¹ s⁻¹; in the assay with soluble human RGMa [3], 490000 M⁻¹ s⁻¹; with Cyno RGMc, 2.6e+06 M⁻¹ s⁻¹; with soluble human RGMc [4], 2.5e+06 M⁻¹ s⁻¹. Moreover, the binding result with Human RGMb is “no binding”. Further, the “IC50 (read off the curve)” value in assay [5] is ~400 pM.
